Assay results from the DeepSol protein solubility set.

Experiment: soluble on expression in E. coli; label from the status in PepcDB or PDB records

Row | Sequence | soluble on expression in E. coli
1 | GSMAPLGGAPRLVLLFSGKRKSGKDFVTEALQSRLGADVCAVLRLSGPLKEQYAQEHGLNFQRLLDTSTYKEAFRKDMIRWGEEKRQADPGFFCRKIVEGISQPIWLVSDTRRVSDIQWFREAYGAVTQTVRVVALEQSRQQRGWVFTPGVDDAESECGLDNFGDFDWVIENHGVEQRLEEQLENLIEFIRSRLKLHHHHHH | soluble
2 | MSIEHHFLCPKKLLKLCNKKIDKDVIRNLQLLTEKFLSDIIHRSALLCKHKGKSTVDNTDIRFVIEKDFDYSFGTREIQGTTSLPTAEHLERMAEISRQNK | not soluble
3 | MGSDKIHHHHHHMINQLMRSVDNLPAFPVTVIKVMDLLSRDDYSIAEVARVISFDQSITANILKVSNSAYFSFGRPIRTVLEAVARLGKENVIRAVQTAGISKFYKTTARGYVSVAADLWEHSVAVALMSQILSRRIYGREDSVLYSAALLHDVGKIIIGAYVYESLEKIQRVVDGRKCSFIEAEEEVIGINHAELGGKITGYWNLPEEICDAIAFHHRPDILDKNSVDMQWIVYLADQLCMMTGIGNGIDGLAYLGISEVLKKFNLREKDLETNMMNLMDDLRNARSILDMV | not soluble
4 | VKILVDENMPYARDLFSRLGEVTAVPGRPIPVAQLADADALMVRSVTKVNESLLAGKPIKFVGTATAGTDHVDEAWLKQAGIGFSAAPGCNAIAVVEYVFSSLLMLAERDGFSLYDRTVGIVGVGNVGRRLQARLEALGIKTLLCDPPRADRGDEGDFRSLDELVQRADILTFHTPLFKDGPYKTLHLADEKLIRSLKPGAILINACRGAVVDNTALLTCLNEGQKLSVVLDVWEGEPELNVELLKKVDIGTSHIAGYTLEGKARGTTQVFEAYSKFIGHEQHVALDTLLPAPEFGRITLHGPLDQPTLKRLVHLVYDVRRDDAPLRKVAGIPGEFDKLRKNYLERREWSSLYVICDDASAASLLCKLGFNAVHHPAR | soluble
5 | MSGNGVKKVAEVAAKAGKAIDWEGMAKMLVSDEARKEFNTLRRTFEDVNHQLQTKFSQEPQPIDWEYYRKGIGSKVVDMYKEAYERTSCFVNPNVNAFCGTVICSEMHVLLCDLVNRSEDTKHEINAGIEIPKYVDTVTPQYKPKFDALLVELKEAEKESLKESERIEKELAELQEMKKNISTMTADEYFAKHPEVKQKFDDEIRNDNWGY | soluble
6 | MEEVKDDKTYKGFVDRLTLGITRVLENLPGVLDVRFVEKAPAEKRCLLSWEQKNNCALPEDLRDFYLTTDGFMLAWNSKLENEVVPVGCMMINNVAQLRPLIQSNVYCLPNAPTLADLDFDDDIDGSDGPEKPHFDLRSRIFELDSCNGNGKVCLVYKSCSPGVMAQQCEVWFLDRSLFWHYLTPSFTAYYRLMITHLGLPEWQYNFTPYGPSPQAKQWAALYQPLTFHSDPHLDTSSEPFLNKLDPTKAFRGKAKPPTPKKKQPAQVPASGTGTAKGQGLSGRHSVAKR | soluble
7 | MAERGGDGGESERFNPGELRMAQQQALRFRGPAPPPNAVMRGPPPLMRPPPPFGMMRGPPPPPRPPFGRPPFDPNMPPMPPPGGIPPPMGPPHLQRPPFMPPPMSSMPPPPGMMFPPGMPPVTAPGTPALPPTEEIWVENKTPDGKVYYYNARTRESAWTKPDGVKVIQQSELTPMLAAQAQVQAQAQAQAQAQAQAQAQAQAQAQAQAQAQAQAQAQAQAQAQAQAQAQAQAQAQAQAQAQVQAQVQAQVQAQAVGASTPTTSSPAPAVSTSTSSSTPSSTTSTTTTATSVAQTVSTPTTQDQTPSSAVSVATPTVSVSTPAPTATPVQTVPQPHPQTLPPAVPHSVPQPTTAIPAFPPVMVPPFRVPLPGMPIPLPGVLPGMAPPIVPMIHPQVAIAASPATLAGATAVSEWTEYKTADGKTYYYNNRTLESTWEKPQELKEKEKLEEKIKEPIKEPSEEPLPMETEEEDPKEEPIKEIKEEPKEEEMTEEEKAAQKAKPVATAPIPGTPWCVVWTGDERVFFYNPTTRLSMWDRPDDLIGRADVDKIIQEPPHKKGMEELKKLRHPTPTMLSIQKWQFSMSAIKEEQELMEEINEDEPVKAKKRKRDDNKDIDSEKEAAMEAEIKAARERAIVPLEARMKQFKDMLLERGVSAFSTWEKELHKIVFDPRYLLLNPKERKQVFDQYVKTRAEEERREKKNKIMQAKEDFKKMMEEAKFNPRATFSEFAAKHAKDSRFKAIEKMKDREALFNEFVAAARKKEKEDSKTRGEKIKSDFFELLSNHHLDSQSRWSKVKDKVESDPRYKAVDSSSMREDLFKQYIEKIAKNLDSEKEKELERQARIEASLREREREVQKARSEQTKEIDREREQHKREEAIQNFKALLSDMVRSSDVSWSDTRRTLRKDHRWESGSLLEREEKEKLFNEHIEALTKKKREHFRQLLDETSAITLTSTWKEVKKIIKEDPRCIKFSSSDRKKQREFEEYIRDKYITAKADFRTLLKETKFITYRSKKLIQESDQHLKDVEKILQNDKRYLVLDCVPEERRKLIVAYVDDLDRRGPPPPPTASEPTRRSTK | soluble
8 | MACKLLFWKLKDYQNILLYSPLGHELDIRPLIFRLRQKNKCVWLPKSIKKGAHFSKESFTIAPFRLPLRRLGWFDEPSLSRYYKQELDCIVVPILGMDTSFRRVGFGLGMYDRSLPQLLKRRLKRPLIVFVSRELAIANGVLTNAYDIEADLYMNARIVVKNNKRKHYEQRVNLHFIRSLGSVFDYRSSHVLCDEKDLLRLEHHHHHH | not soluble
9 | MGSSHHHHHHGGTGENLYFQGGSGKIFSTLGNPGTLAATKPKKGEVVLASPEATVSKYKEAIKQHKKALKELHACTERFTHALAAVAASLQLLTSDTHIPVMVQSSGALASGIEEVQDGVLLQDLMEELDYSLSTRFKQIAEDQRELKESRERKSKAERTLMLLRSQCDKLQLKKDVDAKVQALYLAKTQKRDEHEVECTRLKAEFEDTFQDFTKRFGILVYEDMKGLTVHLHRVLSALSYQVRKCKDNIMAHPITPKPIAEMS | not soluble
10 | MRCPWLIRVGVDIGGTFTDLIVFDEGSGRLESLKVLTTPREPWVGVIRALEEASVDIEGVDVVIHATTLGTNMFLGQEGLEPPSAVLITNRGFRDVLEIGRQNRPELYNLYFTRPKPLVPRDRRLVVKGRIDARGNVVEDIDRGEVARLAKEWCGRADVFIVSMLNSHINPVHEDEIGSIITREC | not soluble
11 | MVEGKVTLRLRYTKTGAMRFLSHLEMIGLFTRAVGRSRIPIRFSRGFHPHPKFSFATALSVGVESWAEYLDMELFPGADPTDIGTRLNGALPEGVRIVEASVIPPGSPSLSVIMDKVRYRVTLPPEAAVGLPELAAAFLARESVPLRREKKGRVLEHHHHHH | soluble
12 | MLFTISENVKEAAQYFVEYKIQSVSDLKEFARVMKEYERKGDSFIHELVVQLNKTFITPIEREDIHQLAMKMDDVLDGFEQCSARFEMFSFTEIDEHMAKFFDYIYQSTIEIVHALELLANKKLLDMRQHAIKIKDYETKCDEILRASIKNLFVTQKDPIKIIQYKELYEMLEEIADSCEDVANTLETIIMRNA | not soluble
13 | SNAGQLCCLREDGERCGRAAGNASFSKRIQKSISQKKVKIELDKSARHLYICDYHKNLIQSVRNRRKRKGS | soluble
14 | MSLKEENYRNQVTEDFEQKKQALPHGDLFTVFSNPDLSVYEQEALMFLYAYMPIGDVTDYSGDYYLENVRLSGQTRTEMPWGDLIPDELFRHFVLPIRVNNENLDDSRRVFYGELKDRVKHLSMKDAILEVNHWCHEKVVYRPSDARTSSPLASVKTAYGRCGEESTFTVAALRSVGIPARQVYTPRWAHTDDNHAWVEAWADGQWYFFGACEPEPVLNLGWFNAPASRGMLMHTKVFGRYTGPEEIMLETPNYTEINVIDNYAPTAKATVTVTDTEGHPVSGAKVEFKIYNYAEFYTVATKYTDAEGKAFLTAGKGDMLVWASRDGKFGYAKLSFGKEDALKLSLDKKVGESYTLPMDIVPPVEGANLPEVTPEQRAENDHRMTQEDSIRNAYVATMMTDEQAKEWVNGLYGNILQPETMKDKLAAFLVASRGNHQTLKDFLSAIRKEKKHISWEEMRGMWLLENISAKDLRDVTLDVLNDHLKNTSDGEKTDTDLVKRALLNPRIANEMLTPYKKILYDAISEAVLKSAPVDAAHDAKALIEWCRKEIKIDNELNSQQIPVSPMGVWKSRVADEKSRDIFFVAAARSIGIPAWIDEVTGKVQYVSDGLSPQDVNFETSQSTQSCTGMLKASYTPIRSLSDPKYYSHFTISKFKNGTFQLLNYDEGDVDMGGGATWSNLLKNGVKLDEGYYMMVTGTRLASGAVLSNTTFFTIEPDKTTTVDLVMRESKDQVQVIGNFNSEATYRPVGGTDLQSILQTCGRGYFVVAVLGVGQEPTNHALRDIAALRSEFEQWGRKMVFLFPSEEQYKKFNTHEFKDLPSTIVYGIDVDNSIQKQIVDAMKLNQSTLPVFIIADTFNRVVFVSQGYTIGLGEQLMKVVHGEGHHHHHH | soluble
15 | MRNKDLEPHSFELWLNAAKTNLDKYEMALIITATLGLRRGEVMGLRNESIKISHDQINDADVAQISIDMQRNTNELNGGPLKTKSSYRTIWAFGKTVDHLKYAMITADNLRQRNNIQAEKHWLWLNNDGNPLHPTHLNRLMRRVSNRSGVEVYPHLLRHYFATQAIAANKPQIDVMHYLGHKNLQMTADYTRSTKAASLNVFNSIDKFLLEHHHHHH | not soluble
16 | MAHHHHHHMPCRKIIIDTDCGGDDAIGIMTALADPNTDVIAMTAVWGNVNVNQGMENIGKLLDVFERDIPFYKGAEAPLVSDPETVQWGGFGKDGFGDADFPPSARVLVQSKTHAALAITELLRAAKPDEDAVYQLVCLGPLTNIALAMRLDPEVFHVLGSETEPAITIMGGASEAKGNSNLTSEFNMHCDPEAAYIVFNQRSMRPVRVVSWEVTVDCSMTWTFFDKWIGRQENGKKQQNRFQVFIEKVFQRLETFTRPLPDGTKANTGDAEATQDNTCVIPDAVAVVAALYPESILDRFITYCTVELHGRETRGQTCLDWYGTKQSMAKRGRWCNCELITRVDNARFLEAMNGILEYNV | not soluble
17 | NRNFSIQMKGTFTYAHNEVLKYDEAAGLRPALSQVGKSLNSIWGYVADGLYIDEADIANNPQSTIGNIAIAPGDVKYVDQPDASGNYDGKITSDDRVVLGYPTIPEIIYGFGPSITWKNWDFSFFFQGQARVSFMMSGFEPFGTQSKNNVLKWISDDHWSKDNQNPNARYPRLTQYNNNNNTASSSYWLRNASFLKLRNAEIGYRFKWARIYVNGSNLLTFSPFKLWDPEMGGGAGMKYPTQRTYNVGIQLTFK | not soluble
18 | MNFGAYGKITDVEFVSDSEGPLHFCIITFADSRSVDVLLTKSIYIRDVLMFTRRAVLKESVKIAEHKIKEQEQQNLVQLPPNHTAYLTPSRPVTSVHASSSASSNHYDPSAAAGYAPLYHQPPESDPLSQCGYGPRKW | not soluble
19 | MGHHHHHHSHMRGRIYLEPPTMRKKRLLDRKVLLKSDSPTGDVLLDETLKHIKATEPTETVQTWIELLTGETWNPFKLQYQLRNVRERIAKNLVEKGILTTEKQNFLLFDMTTHPVTNTTEKQRLVKKLQDSVLERWVNDPQRMDKRTLALLVLAHSSDVLENVFSSLTDDKYDVAMNRAKDLVELDPEVEGTKPSATEMIWAVLAAFNKS | not soluble
20 | MKKRKPMDYKTRIIYALLKSRLKTIDTYASRAEEIQDRQLRRILSSAAYTSTGIRYGFNRISSKECFARNVPVRDYESTQAEIERMLRGEKDVLCPGRCTWFAKSSGTTNSKSKFIPVPYRHLHYCHYQGGKDSLSLYLRNRPDSRFFTTKGLVLGGSHAPVSMNADIQVGDLSAILVENMPVLGNCMRVPSKETLLMDEWTEKLKAVVREVAHVRVGSLSGVPSWILVLIKDVLAATGRETLSDVWPELEVFFHGGISFAPYRAQYEKLIPSSRMQYMETYNASEGFFGIQDDPKDSGMLLMLDYGVYYEFIPMEHFGRPEAEAIPLEGVEKGRNYAMIISTLGGLYRYVLGDTVRFTSVKPYKIVITGRTKHYINAFGEELMVDNSDKALAATCKRFGVQAVDYTVAPHFFSEEGKGRHDWLIEFVSAPADPNAFAKALDAELQTLNSDYEAKRYADMTLLPLSLTIARSGLFHDWLTEQGKLGGQHKVPRLSNTPEIMRSILEMNSAAALEHHHHHH | not soluble
